According to US20110052582A1 (Hoffmann-La Roche, published 2011):
Numbering of substitutions follows the chain as printed.

T1: Soluble CDCP1 extracellular domain (CDCP1-ECD) (SEQ ID NO:30) fused to Streptavidin Binding Protein (SBP) (human, UniProt Q9H5V8 30-663)
T1 construct: also called SBP-CDCP1-ECD
T1 sequence: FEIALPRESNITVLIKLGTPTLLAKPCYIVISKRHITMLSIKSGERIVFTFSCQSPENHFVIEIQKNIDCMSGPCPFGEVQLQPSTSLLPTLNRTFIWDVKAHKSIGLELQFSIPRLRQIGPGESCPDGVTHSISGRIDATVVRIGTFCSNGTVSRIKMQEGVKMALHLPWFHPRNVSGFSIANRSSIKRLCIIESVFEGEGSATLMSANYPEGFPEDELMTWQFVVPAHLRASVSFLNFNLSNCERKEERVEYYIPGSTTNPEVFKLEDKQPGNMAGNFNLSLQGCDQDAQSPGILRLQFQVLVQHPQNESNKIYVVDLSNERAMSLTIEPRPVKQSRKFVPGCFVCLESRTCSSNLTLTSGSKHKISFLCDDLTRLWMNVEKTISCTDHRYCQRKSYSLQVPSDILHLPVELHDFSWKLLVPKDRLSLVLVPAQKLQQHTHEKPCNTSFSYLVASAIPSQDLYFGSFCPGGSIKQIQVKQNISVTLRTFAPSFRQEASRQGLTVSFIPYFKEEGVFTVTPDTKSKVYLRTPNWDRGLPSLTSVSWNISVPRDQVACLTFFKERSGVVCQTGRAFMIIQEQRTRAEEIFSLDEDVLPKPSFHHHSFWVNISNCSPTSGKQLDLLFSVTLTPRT

T2: extracellular-domain-(ECD)-comprising fragment of human CDCP1 of SEQ ID NO: 30 (human, UniProt Q9H5V8 30-663)
T2 construct: also called CDCP1 ECD; CDCP1-ECD
T2 sequence: T1 sequence

B1: Humanized CUB4 Antibody No. 91 (antibody, IgG1, V domains shown)
VH: EVQLVESGGGLVQPGGSLRLSCAASGFTFNSYGMSWVRQAPGKGLEWVATISSGGSYKYYVDSVKGRFTISRDNAKNSLYLQMNSLRAEDTAVYYCARHPDYDGVWFAYWGQGTLVTVSS
VL: EIVLTQSPATLSLSPGERATLSCSVSSSVFYVHWYQQKPGQAPRLLIYDTSKLASGIPARFSGSGSGTDFTLTISSLEPEDFAVYYCQQWNSNPPTFGGGTKVEIK
notes: Only variable domains are tied to the antibody; Human constant region, preferably IgG1; also called hHC4-H / hLC-a
B2: hHC4-b / hLC4-c (antibody, V domains shown)
VH: B1 VH with Q13K, G33S, S35N, A49S, T50S, K58I, V61A
VL: B1 VL with L4M, L13V, D69E, E78Q, P79S
B3: hHC4-07 / hLC4-d (antibody, V domains shown)
VH: B1 VH with V5L, G33A, A49S, K58T, V61P, A75S, S78T, R98K
VL: B1 VL with L4M, L13V, D69E, F70Y, E78Q, P79S
B4: hHC4-d / hLC4-c (antibody, V domains shown)
VH: B1 VH with V5L, A49S, K58T, V61P, A75S, S78T, R98K
VL: B1 VL with L4M, L13V, D69E, E78Q, P79S
B5: hHC4-K / hLC4-d (antibody, V domains shown)
VH: B1 VH with Q13K, A49S, T50S, K58I, V61A
VL: B1 VL with L4M, L13V, D69E, F70Y, E78Q, P79S
B6: chHC4 / hLC4-I (antibody, V domains shown)
VH: EVQLVESGGDLVKPGGSLKLSCAASGFTFNSYGMSWVRQTPDKRLEWVATISSGGSYTYYPDSVKGRFTISRDNAKNTLYLQMSSLKSEDTAMYYCARHPDYDGVWFAYWGQGTLVTVSA
VL: B1 VL with L4M, S24R, V25A, V32L, H33S, L46W, E78Q
B7: hHC4-04 / hLC4-c (antibody, V domains shown)
VH: B1 VH with V5L, A49S, K58T, V61P, A75S, S78T
VL: B1 VL with L4M, L13V, D69E, E78Q, P79S
B8: hHC4-d / hLC4-d (antibody, V domains shown)
VH: B1 VH with V5L, A49S, K58T, V61P, A75S, S78T, R98K
VL: B1 VL with L4M, L13V, D69E, F70Y, E78Q, P79S
B9: hHC4-H / hLC4-c (antibody, V domains shown)
VH: B1 VH
VL: B1 VL with L4M, L13V, D69E, E78Q, P79S
notes: also called Humanized CUB4 Antibody No. 113
B10: hHC4-I / hLC4-b (antibody, V domains shown)
VH: B1 VH with V5L, G33A, A49S, T50A, K58T, V61A, A75S, S78T, R98K
VL: B1 VL with F70Y
B11: hHC4-H / hLC4-d (antibody, V domains shown)
VH: B1 VH
VL: B1 VL with L4M, L13V, D69E, F70Y, E78Q, P79S
notes: also called Humanized CUB4 Antibody No. 124
B12: hHC4-03 / hLC4-c (antibody, V domains shown)
VH: B1 VH with V5L, A49S, T50A, K58T, V61P, A75S, S78T, R98K
VL: B1 VL with L4M, L13V, D69E, E78Q, P79S
B13: hHC4-07 / hLC4-c (antibody, V domains shown)
VH: B1 VH with V5L, G33A, A49S, K58T, V61P, A75S, S78T, R98K
VL: B1 VL with L4M, L13V, D69E, E78Q, P79S
B14: hHC4-b / hLC4-d (antibody, V domains shown)
VH: B1 VH with Q13K, G33S, S35N, A49S, T50S, K58I, V61A
VL: B1 VL with L4M, L13V, D69E, F70Y, E78Q, P79S
B15: hHC4-04 / hLC4-d (antibody, V domains shown)
VH: B1 VH with V5L, A49S, K58T, V61P, A75S, S78T
VL: B1 VL with L4M, L13V, D69E, F70Y, E78Q, P79S
B16: hHC4-03 / hLC4-d (antibody, V domains shown)
VH: B1 VH with V5L, A49S, T50A, K58T, V61P, A75S, S78T, R98K
VL: B1 VL with L4M, L13V, D69E, F70Y, E78Q, P79S
B17: hHC4-d / hLC4-a (antibody, V domains shown)
VH: B1 VH with V5L, A49S, K58T, V61P, A75S, S78T, R98K
VL: B1 VL
B18: hHC4-d / hLC4-b (antibody, V domains shown)
VH: B1 VH with V5L, A49S, K58T, V61P, A75S, S78T, R98K
VL: B1 VL with F70Y
B19: hHC4-d / hLC4-L2 (antibody, V domains shown)
VH: B1 VH with V5L, A49S, K58T, V61P, A75S, S78T, R98K
VL: B1 VL with L21M, V32L, L46W
B20: hHC4-d / hLC4-J (antibody, V domains shown)
VH: B1 VH with V5L, A49S, K58T, V61P, A75S, S78T, R98K
VL: B1 VL with L4M, L21M, S24R, V25A, V32L, L46W, E78Q
B21: hHC4-d / hLC4-M (antibody, V domains shown)
VH: B1 VH with V5L, A49S, K58T, V61P, A75S, S78T, R98K
VL: B1 VL with L21M, S24G, V25A, V32L, Q41L, L46W, A59D, S76R
B22: hHC4-d / hLC4-K (antibody, V domains shown)
VH: B1 VH with V5L, A49S, K58T, V61P, A75S, S78T, R98K
VL: B1 VL with S24R, V25A, V32L, L46W
B23: Humanized CUB4 Antibody No. 102 (antibody, IgG1, V domains shown)
VH: B1 VH
VL: B1 VL with F70Y
notes: Only variable domains are tied to the antibody; Human constant region, preferably IgG1; also called hHC4-H / hLC-b
B24: hHC4-d / hLC4-I (antibody, V domains shown)
VH: B1 VH with V5L, A49S, K58T, V61P, A75S, S78T, R98K
VL: B1 VL with L4M, S24R, V25A, V32L, H33S, L46W, E78Q
B25: hHC4-d / hLC4-L (antibody, V domains shown)
VH: B1 VH with V5L, A49S, K58T, V61P, A75S, S78T, R98K
VL: B1 VL with L21M, S24R, V25A, V32L, L46W
B26: chHC4 / hLC4-f (antibody, V domains shown)
VH: B6 VH
VL: DIQMTQSPSSLSASVGDRVTITCSVSSSVFYVHWYQQKPGKAPKLLIYDTSKLASGVPSRFSGSGSGTDYTFTISSLQPEDIATYYCQQWNSNPPTFGGGTKVEIK

molecular target: T1, Soluble CDCP1 extracellular domain …; test: ELISA on captured SBP-CDCP1-ECD, ratio relative to chimeric CUB4 (chHC4)
Summary of the method: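 Streptavidin plates coated overnight at 2–8° C with SBP-CDCP1-ECD HEK293 supernatant (1:15–1:40). Antibodies, undiluted or 12-step dilution, bound 90 min at room temperature; HRP anti-human IgG 1 h, ABTS read at 405/492 nm, signal expressed relative to chimeric chHC4 reference.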

Row | relative binding ratio | binding result | Binder
1 | 0.51 |  | B1
2 |  | no binding | B2
3 | 0.04 |  | B3
4 | 0.45 |  | B4
5 |  | no binding | B5
6 |  | no binding | B6
7 | 0.33 |  | B7
8 | 0.41 |  | B8
9 | 0.44 |  | B9
10 | 0.07 |  | B10
11 | 0.34 |  | B11
12 | 0.07 |  | B12
13 | 0.04 |  | B13
14 |  | no binding | B14
15 | 0.41 |  | B15
16 | 0.07 |  | B16
17 | 0.34 |  | B17
18 | 0.38 |  | B18
19 | 0.49 |  | B19
20 | 0.38 |  | B20
21 | 0.8 |  | B21
22 | 0.52 |  | B22
23 | 0.53 |  | B23
24 |  | no binding | B24
25 | 0.56 |  | B25
26 | 0.24 |  | B26

molecular target: T2, extracellular-domain-(ECD)-comprising …; test: SPR (Biacore T100), antibody captured, CDCP1 ECD as analyte, 25 C, Langmuir 1:1
Procedure: After conjugation, different anti-CDCP1 antibodies were injected at 25° C. at a flow rate of 5 μL/min, followed by a dilution series (0 nM to 1000 nM) of CDCP1 ECD at 30 μL/min. As running buffer for the binding experiment PBS/0.1% BSA was used. The chip was then regenerated with a 60s pulse of 10 mM glycine-HCl, pH 2.0 solution.
Calculation of thermodynamic parameters (KD, binding constant) and kinetic parameters (kₒₙ rate, koff rate) were calculated using a Langmuir 1:1 binding model.

Row | Kd [nM] | koff [s⁻¹] | kon [M⁻¹ s⁻¹] | t½ diss. [min] | Binder
27 | 5.6 | 0.001 | 180000 | 11.2 | B1
28 | 5.4 | 0.0011 | 190000 | 11 | B23
